How the values were obtained:
[1] = molecular target: wild type Penicillium oxalicum glucoamylase (Penicillium oxalicum); experiment: cell-based or functional assay
[2] = molecular target: Penicillium oxalicum glucoamylase variant PE001 (SEQ ID NO: 14 + K79V substitution) (Penicillium oxalicum); experiment: cell-based or functional assay
[3] = test system: T1, wild type Penicillium oxalicum glucoamylase
T1 sequence: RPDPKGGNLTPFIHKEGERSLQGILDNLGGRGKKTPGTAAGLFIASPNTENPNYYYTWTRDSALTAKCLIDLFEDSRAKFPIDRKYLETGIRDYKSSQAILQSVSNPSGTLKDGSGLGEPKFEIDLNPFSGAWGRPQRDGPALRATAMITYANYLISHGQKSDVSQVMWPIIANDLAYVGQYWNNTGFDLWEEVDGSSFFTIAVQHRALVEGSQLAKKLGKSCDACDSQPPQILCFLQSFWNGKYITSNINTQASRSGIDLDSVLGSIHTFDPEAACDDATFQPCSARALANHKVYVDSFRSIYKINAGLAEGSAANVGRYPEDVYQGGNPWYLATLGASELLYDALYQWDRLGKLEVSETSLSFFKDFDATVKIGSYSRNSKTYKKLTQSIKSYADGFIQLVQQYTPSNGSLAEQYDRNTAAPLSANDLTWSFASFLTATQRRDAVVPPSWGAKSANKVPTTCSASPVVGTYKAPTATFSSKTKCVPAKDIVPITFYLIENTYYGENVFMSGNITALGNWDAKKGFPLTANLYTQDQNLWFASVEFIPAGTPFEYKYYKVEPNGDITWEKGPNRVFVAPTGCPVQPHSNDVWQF

Row | intact glucoamylase (ca. 70 kDa) on SDS-PAGE after overnight protease treatment at 4 °C [1] [%] | intact glucoamylase (ca. 70 kDa) on SDS-PAGE after overnight protease treatment at 32 °C [1] [%] | intact glucoamylase (ca. 70 kDa) on SDS-PAGE after overnight protease treatment at 4 °C [2] [%] | intact glucoamylase (ca. 70 kDa) on SDS-PAGE after overnight protease treatment at 32 °C [2] [%] | Substance | cleaved glucoamylase (ca. 60 kDa) on SDS-PAGE after overnight protease treatment at 32 °C [3] [%] | cleaved glucoamylase (ca. 60 kDa) on SDS-PAGE after overnight protease treatment at 4 °C [3] [%]
1 | 100 | 90 | 100 | 100 | aspergillopepsin I (enzyme) |  | 
2 |  |  |  |  | aspergillopepsin I | 10 | 
3 | 40 | 10 | 100 | 100 | aorsin (enzyme) |  | 
4 |  |  |  |  | aorsin | 90 | 60

Reference: patent US20170166934A1
